Eight molecules from patent US20240158494A1 (Biogen, published 2024) can be followed below.

In assay [1] the target is T1, human transferrin receptor 1 (TfR1), full length, expressed on cells (human, UniProt P02786 1-760).
T1 construct: also called human TfR1; huTfR
In words: FACS on Ba/F3 cells, purified Fab.

The target of assay [2] is T2, cynomolgus monkey transferrin receptor 1 (TfR1), full length, expressed on cells (cynomolgus monkey, UniProt Q5RDH6 1-760 (Pongo abelii entry)).
T2 construct: also called cyno TfR1; cyTfR
The assay can be described thus: FACS on Ba/F3 cells, purified Fab.

Assay [3] has as its target T1, human transferrin receptor 1 (TfR1), …. In words: FACS on Ba/F3 cells, Fab supernatant.
The target of assay [4] is T2, cynomolgus monkey transferrin receptor …. In words: FACS on Ba/F3 cells, Fab supernatant.
The target of assay [5] is T1, human transferrin receptor 1 (TfR1), …. The assay can be described thus: FACS on Ba/F3 cells, Fab supernatant. The source holds these as a separate data set.
Assay [6] has as its target T2, cynomolgus monkey transferrin receptor …. In words: FACS on Ba/F3 cells, Fab supernatant. The source holds these as a separate data set.
In assay [7] the target is T3, recombinant human TfR1 extracellular domain, His-tagged (human, UniProt P02786 89-760).
T3 construct: also called Human TfR1 ECD; human TfR1 ECD-His
The assay can be described thus: SPR, TfR1 ECD-His captured, Fab injected, 1:1 fit.

For assay [8], the target named is T4, recombinant cynomolgus monkey TfR1 extracellular domain, His-tagged (cynomolgus monkey, UniProt Q5RDH6 87-760 (Pongo abelii entry)).
T4 construct: also called Cyno TfR1 ECD; cyno TfR1 ECD-His
The assay can be described thus: SPR, TfR1 ECD-His captured, Fab injected, 1:1 fit. In general terms: In SPR one partner is held on a chip, and binding of the other changes the refractive index at the surface.

The target of assay [9] is T1, human transferrin receptor 1 (TfR1), …. In words: FACS on Ba/F3 cells, purified Fab. The source holds these as a separate data set.
Assay [10] concerns the target T2, cynomolgus monkey transferrin receptor …. In words: FACS on Ba/F3 cells, purified Fab. This is another data set of the same source.
Assay [11] deals with T1, human transferrin receptor 1 (TfR1), …. In words: FACS on Ba/F3 cells, Fab supernatant. The source holds these as a separate data set.
In assay [12] the target is T2, cynomolgus monkey transferrin receptor …. In words: FACS on Ba/F3 cells, Fab supernatant. The source holds these as a separate data set.
Assay [13] has as its target T1, human transferrin receptor 1 (TfR1), …. In words: FACS on Ba/F3 cells, Fab supernatant. This is another data set of the same source.
The target in assay [14] is T2, cynomolgus monkey transferrin receptor …. In words: FACS on Ba/F3 cells, Fab supernatant. The source holds these as a separate data set.

B1: TfR1 ANTIBODY-B HC-H4C hIgG1 Fab′(1C)/LC-L2 hKappa (Fab, V domains shown)
VH: QSLVESGGGVVQPGRSLRLSCKASGFSFSNSYWICWVRQAPGKGLEWVGCINTDADSTNYASWARGRFTISKTSSTTVYLQMNSLRAEDTAVYYCARQNNVFDPGYNLWGPGTLVTVSS
VL: ELVLTQSPSTLSASVGDRVTITCRASQNIGSNLAWYQQKPGKAPKLLIYDASKLESGVPSRFSGSGSGTEFTLTISSLQPDDFATYYCQCTVRGGAYGNAFGGGTKVEIKR
notes: also called ANTIBODY-B H4C/L2; exemplary construct (v)
Broadly, the EC50 is the concentration at which the effect is half-maximal. For orientation: Kd means the concentration at which binding is half-saturated. As a reminder, the koff is the rate constant with which the complex falls apart. Broadly, the kon is a measure of how fast the partners come together. Consider B1, for which the EC50 was 4.8 nM in assay [1]; 2 nM in [2]; 4.7 nM in assay [3]; 2.9 nM in [4]; 5.4 nM in [5]; 1.9 nM in assay [6]. For the same molecule, the Kd in assay [7] came out at 3.4 nM; in [8], 0.7 nM. Besides, the results for the koff in [7] and in assay [8] were 0.000767 s⁻¹ and 0.000279 s⁻¹, respectively. The kon in assay [7] came out at 223000 M⁻¹ s⁻¹; in assay [8], 398000 M⁻¹ s⁻¹.

B2: TfR1 ANTIBODY-B HC-H2C hIgG1 Fab′(1C)/LC-L2 hKappa (Fab, V domains shown)
VH: QSLVESGGGVVQPGRSLRLSCKASGFSFSNSYWICWVRQAPGKGLEWVGCINTDADSTNYADSVKGRFTISKDSSTTVYLQMNSLRAEDTAVYYCARQNNVFDPGYNLWGQGTLVTVSS
VL: ELVLTQSPSTLSASVGDRVTITCRASQNIGSNLAWYQQKPGKAPKLLIYDASKLESGVPSRFSGSGSGTEFTLTISSLQPDDFATYYCQCTVRGGAYGNAFGGGTKVEIKR
notes: also called ANTIBODY-B H2C/L2
Turning to B2, the EC50 turned out to be 6.5 nM in assay [1], 2.6 nM in assay [2], 3.3 nM in assay [3] and 2.2 nM in assay [4]. In addition, the Kd in [7] was determined as 5.8 nM; in assay [8], 1.1 nM. Further, the results for the koff in [7] and in [8] were 0.000999 s⁻¹ and 0.000472 s⁻¹, respectively. Besides, the kon in [7] stood at 170000 M⁻¹ s⁻¹; in assay [8] it was 445000 M⁻¹ s⁻¹.

B3: TfR1 ANTIBODY-B HC-H4 hIgG1 Fab′(1C)/LC-L2 hKappa (Fab, V domains shown)
VH: QSLVESGGGVVQPGRSLRLSCKASGFSFSNSYWIAWVRQAPGKGLEWVAAINTDADSTNYASWARGRFTISKTSSTTVYLQMNSLRAEDTAVYYCARQNNVFDPGYNLWGPGTLVTVSS
VL: ELVLTQSPSTLSASVGDRVTITCRASQNIGSNLAWYQQKPGKAPKLLIYDASKLESGVPSRFSGSGSGTEFTLTISSLQPDDFATYYCQCTVRGGAYGNAFGGGTKVEIKR
notes: also called ANTIBODY-B H4/L2
On to B3, for which the EC50 stood at 9.8 nM in assay [1], 3.4 nM in [2], 2.3 nM in assay [3] and 4.6 nM in assay [4]. The Kd in assay [7] was determined as 11.6 nM; in [8], 2.2 nM. Also, the koff was determined as 0.00155 s⁻¹ in [7] and 0.000508 s⁻¹ in assay [8]. The values for the kon in assay [7] and in assay [8] were 134000 M⁻¹ s⁻¹ and 228000 M⁻¹ s⁻¹, respectively.

B4: TfR1 ANTIBODY-A HC-H4C hIgG1 Fab′(1C)/LC-L1 hKappa (Fab, V domains shown)
VH: QSLVESGGGLVQPGGSLRLSCKASGIDFSSSGYMCWVRQAPGKGLEWVGCIYTYSSNTYYASWAKGRFTISKTSSTTVYLQMNSLKTEDTAVYYCARGTYGYTGYTYTMGYFSLWGPGTLVTVSS
VL: DIQMTQSPSTLSASVGDRVTITCQASQNINSYLAWYQQKPGKAPKLLIYRASTLASGVPSRFSGSGSGTEFTLTISSLQPDDFATYYCQSYYYSGSSNYNAFGGGTKVEIKR
notes: also called ANTIBODY-A H4C/L1
As to B4, the EC50 in assay [9] worked out at 1.8 nM; in assay [10], 2.4 nM; in assay [11], 2.2 nM; in assay [12], 1.8 nM. Moreover, the Kd in assay [7] came to 0.91 nM; in [8], 2.6 nM. Moreover, the koff in assay [7] worked out at 0.000894 s⁻¹; in assay [8], 0.0114 s⁻¹. For the same molecule, the kon was determined as 983000 M⁻¹ s⁻¹ in assay [7] and 4.4e+06 M⁻¹ s⁻¹ in assay [8].

B5: TfR1 ANTIBODY-A HC-H3C hIgG1 Fab′(1C)/LC-L1 hKappa (Fab, V domains shown)
VH: QSLVESGGGLVQPGGSLRLSCKASGIDFSSSGYMCWVRQAPGKGLEWVGCIYTYSSNTYYASWAKGRFTISKDSKNSVYLQMNSLKTEDTAVYYCARGTYGYTGYTYTMGYFSLWGPGTLVTVSS
VL: DIQMTQSPSTLSASVGDRVTITCQASQNINSYLAWYQQKPGKAPKLLIYRASTLASGVPSRFSGSGSGTEFTLTISSLQPDDFATYYCQSYYYSGSSNYNAFGGGTKVEIKR
notes: also called ANTIBODY-A H3C/L1
In the case of B5, the EC50 in [9] came out at 1.5 nM; in assay [10], 5.5 nM; in assay [11] it was 2.1 nM; in assay [12] it was 4.5 nM. Besides, the Kd in assay [7] turned out to be 1.2 nM; in assay [8], 4.1 nM. The results for the koff in assay [7] and in [8] were 0.00126 s⁻¹ and 0.0106 s⁻¹, respectively. Further, the kon is 1.02e+06 M⁻¹ s⁻¹ in assay [7] and 2.58e+06 M⁻¹ s⁻¹ in assay [8].

B6: TfR1 ANTIBODY-A HC-H3C hIgG1 Fab′(1C)/LC-L0 hKappa (Fab, V domains shown)
VH: QSLVESGGGLVQPGGSLRLSCKASGIDFSSSGYMCWVRQAPGKGLEWVGCIYTYSSNTYYASWAKGRFTISKDSKNSVYLQMNSLKTEDTAVYYCARGTYGYTGYTYTMGYFSLWGPGTLVTVSS
VL: DIQMTQSPSTLSASVGDRVTITCQASQNINSYLAWYQQKPGKAPKLLIYRASSLESGVPSRFSGSGSGTEFTLTISSLQPDDFATYYCQSYYYSGSSNYNAFGGGTKVEIKR
notes: also called ANTIBODY-A H3C/L0; TfRANTIBODY-A HC-H3C hIgG1Fab′(1C)/LC-L0 hKappa
With B6, the EC50 is 1.6 nM in assay [9]; 5 nM in assay [10]; 2.5 nM in [11]; 2.7 nM in assay [12]; 1.1 nM in assay [13]; 1.5 nM in assay [14]. Also, the Kd came out at 1.4 nM in assay [7] and 2.5 nM in assay [8]. In addition, the koff came to 0.0012 s⁻¹ in assay [7] and 0.0103 s⁻¹ in assay [8]. Besides, the association rate constant (kon) in assay [7] worked out at 835000 M⁻¹ s⁻¹; in [8], 4.1e+06 M⁻¹ s⁻¹.

B7: TfR1 ANTIBODY-A HC-H2C hIgG1 Fab′(1C)/LC-L1 hKappa (Fab, V domains shown)
VH: QSLVESGGGLVQPGGSLRLSCAASGIDFSSSGYMCWVRQAPGKGLEWVGCIYTYSSNTYYAASVKGRFTISKTSSTTVYLQMNSLKTEDTAVYYCARGTYGYTGYTYTMGYFSLWGQGTLVTVSS
VL: DIQMTQSPSTLSASVGDRVTITCQASQNINSYLAWYQQKPGKAPKLLIYRASTLASGVPSRFSGSGSGTEFTLTISSLQPDDFATYYCQSYYYSGSSNYNAFGGGTKVEIKR
notes: also called ANTIBODY-A H2C/L1
In the case of B7, the EC50 in assay [9] was 1.3 nM; in [10], 3.3 nM; in [11] it was 2.6 nM; in [12], 3.3 nM. For the same molecule, the Kd in assay [7] stood at 1.2 nM; in [8] it was 3 nM. Moreover, the koff in [7] was found to be 0.000947 s⁻¹; in assay [8] it was 0.0195 s⁻¹. In addition, the on-rate constant (kon) is 773000 M⁻¹ s⁻¹ in [7] and 6.56e+06 M⁻¹ s⁻¹ in assay [8].

B8: TfR1 ANTIBODY-A HC-H4C hIgG1 Fab′(1C)/LC-L0 hKappa (Fab, V domains shown)
VH: QSLVESGGGLVQPGGSLRLSCKASGIDFSSSGYMCWVRQAPGKGLEWVGCIYTYSSNTYYASWAKGRFTISKTSSTTVYLQMNSLKTEDTAVYYCARGTYGYTGYTYTMGYFSLWGPGTLVTVSS
VL: DIQMTQSPSTLSASVGDRVTITCQASQNINSYLAWYQQKPGKAPKLLIYRASSLESGVPSRFSGSGSGTEFTLTISSLQPDDFATYYCQSYYYSGSSNYNAFGGGTKVEIKR
notes: also called ANTIBODY-A H4C/L0
With B8, the EC50 came to 1.4 nM in assay [9], 2 nM in [10], 1.4 nM in assay [11] and 1.8 nM in assay [12]. Moreover, the dissociation constant Kd in assay [7] was determined as 0.99 nM; in assay [8] it was 3.3 nM. The koff in [7] turned out to be 0.000878 s⁻¹; in assay [8] it was 0.00583 s⁻¹. Further, the results for the kon in assay [7] and in [8] were 887000 M⁻¹ s⁻¹ and 1.75e+06 M⁻¹ s⁻¹, respectively.
